Experiment: yeast display, Sf9 membrane polyspecificity reagent, FACS + sequencing; frameworks hold sequencing errors
Outline: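 Galactose induction of a Saccharomyces cerevisiae BJ5465 synthetic nanobody display library ran 36–48 hours. The cells were then stained for 1 hour at 4 °C with 10% biotinylated, detergent-solubilized Sf9 membrane reagent, pulled down on streptavidin microbeads and FACS-sorted into low and high (top ~1%) gates on expression and reagent-binding fluorescence. Labels for polyreactivity follow the gate of origin.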

| Sequence | polyreactivity (PSR sort gate) |
| --- | --- |
| QVQLVESGGGLVQEGGSLRLSCAASGGIFSAYAMGWYRQAPGKERELVAAISRTGGSTYYADSVKGRFTISRDNAKITVYLQMTSLKPEDTAVYYCNADYRRYPEFDYWGQGTQVTVSS | high polyreactivity |
| QVQLVESGGGLVQAGGSLRLSCAASGGTLYIYAMGWDRQAPGKERELVAAIRGRGGSTYADSVKGRCTISRDNAKNTVYLQMNSLKPEDTAVYYCAASGIRYWLPYDYWGQGTQVTVSS | high polyreactivity |
| QVQLVESGGGLVQAGGSLRLSCAASGPIVAYNAMGWYRQAPGKERELVAAISYSGGSTYYADSVKGRFTISRDNAKNTVYLQMNSLKPEDTAVYYCNAVYRYRTYRYDYWGQGTQVTVSS | high polyreactivity |
| QVQLVESGGGLVQAGGSLRLSCDASGFTFPSYAMGWYRQAPGKERELVAAISYRGGRTYYADSVKGRFTISRDNAKNTVYLQMNSLKPEDTAVYYCAAAGYAWWGEYEYWGQGTQVTVSS | high polyreactivity |
| QVQLVESGGGLVQAGGSLRLSCAASGRIFVVYAMGWYRQEPGKERELVAAITGGGRTNYADSVKGRFTISRDNAKNTVYLHMNSLKPEATAVYYCAAGTRSDARRYYYWGQGTQVTVSS | low polyreactivity |
| QDQLVESGGCLVQAGGSLRLSCAASGGTFRVYAMGWYRQAPGKERELVAAITGRGGSTYYADSVKGRFTISRDNAKNTVYLQMNSLKPDDTAVDYCNKEPELVEYDYWGQGTQVTVSS | low polyreactivity |
| QVQLVESGGGLVQAGGSLRLSCAASGRIFFTYAMGWSRQAPGKERELVAAISWSGGGTYYADSVKGRFTISRDNAKNTVYLQMNSLKPEDTAVYYCAADNTILFDYWGQGTQVTVSS | low polyreactivity |
| QVQLVESGGGLVQAGGSLRLSCAASGSTFLRNVMGWYRQAPGKERELVAAISSRGGSTHYADSVKGRFTISRDNAKNTDYLQMNSLKPEDTAVYYCNAERTAAQYVRAAYDYWGQGTQVTVSS | low polyreactivity |
| QVQLVESGGGLVQAGGSLRLSCAASGSIFNRYTMGWYRQAPGKEREFVAAIRNSGSRTYYADSVKRRFTISRDNAKNTVYLQMNSLKPEDTAVYYCAADGPLNSSESYYWGQGTQVTVSS | low polyreactivity |
| QVQLVESGGGLVQAGGSLRLSCAASGRIFSWYTMGWYRQAPGKERELVAAISWSGTSTYYADSVKGRFTISRDNAKNTVYLQMNSLKPEDTAVYYCARVLSPYYSTRYDHWGQGTQVTVSS | high polyreactivity |
| QVQLVESGVGLVQAGGSLRLSCAATGSIFRVNAMGWYRQAPGKERELVAGIRWRGGSTYYADSVKGRFTISRDNAKNTVYLQMNSLKPEDTAVYYCAARSYPFIATYGYWGQGTQVTVSS | high polyreactivity |
| QVQLVESGGGLVQAGGSLRLSCAASGRTFITYAMGWYRQAPGKERELVAAISSGGGRTYYADSVKGRFTISRDNAKNTVYLQMNSLKPEDTAVYYCAALYVYPLTYKPSRYPYDYWGQGTQVTVSS | high polyreactivity |
| QVQLVESGGGLVQAGGSLRLSCAASGSNIDGYAMGRYRQAPGKEREFLAAISFSSASTYYADSVKGRFTISRDNAKNSVYLQMNSLKPEDTAVYYCNADFFESGGSIEYDSSGQGTQVTVSS | low polyreactivity |
| QVQLVESGGGLVQAGGSLRLSCAASGSIFGKYAMGWYRQAPGKERELVAAITGRGASTYYADSVKGRFTISRDNAKNTVYLQMNSLKPVDTAVYYCAARASWYYVYPYDYWGQGTQVTVSS | low polyreactivity |
| QVQLVESGGGLVQAGGSLRLSCAASGSTFSLYMGWYRQAPGKERELVAAITYSGGRTYYADSVKGRFTITLDNAKNTFYLQMNSVNPEDTAVYYCATVFNDLTVYEDWSRFDYWGQGTQVTVSS | low polyreactivity |
| QVQLVESGGGLVQAGGSLRLRCAASGGIFGRYAMGWYRQAPGKERELVAAISKRGGSTYYADSVKGRFTISRDNAKNTVYLLMNSLKPEDTAVYYCNASQSVELGYDYLGQGTQVTVSS | high polyreactivity |
| QVQLVESGGGLVQAGGSLRLSCAASGFTFSNYAMGWYRQAPGKERELVAAISKRGGSTYYADSVKGRFTISRDNAKNTVYLQRNSLKPEDTAVYYCAAYGGYIRRSVPVWGYYYWGQGTQVTVSS | high polyreactivity |

From the nanobody polyreactivity screen of Harvey et al. (2022)
